Laboratory results as given in publication PMC10960832.

Tests used:
[1] = target: C-terminal avi tagged 53BP1 Tudor domain, biotinylated (human) (UniProt Q12888); experiment: AlphaScreen or HTRF; TR-FRET competition: 0.5 uM His-tagged i53, 0.5 uM C-terminal avi tagged 53BP1, 5 nM europium anti-His antibody, 0.5x streptavidin-XL665, i53 variant 5000-4.8 nM; 50 mM Tris pH 7.5, 150 mM NaCl, 0.02% Tween-20, 0.05% BSA; 2 h at room temperature; non-linear 4 parameter curve …
[2] = target: 53BP1 Tudor domain (53BP1 residues 1484–1603) (human) (UniProt Q12888)

Substance | EC50 [1] [nM] | potency in increasing HDR / decreasing NHEJ at HBB in HSPCs (dose response of purified protein in the electroporation mix, HBB-SNP AAV6), relative to parental i53 [2] [fold]
i53 variant L67H (designed binder) | 465 | 
i53 variant T12Y.T14E.L67R (designed binder) | 179 | 
i53 variant L67R (designed binder) | 458 | 3
i53 variant L67H.H68Y (designed binder) | 501 | 

Further substances by falling EC50 [1], results first:

EC50 [1] [nM] | potency in increasing HDR / decreasing NHEJ at HBB in HSPCs (dose response of purified protein in the electroporation mix, HBB-SNP AAV6), relative to parental i53 [2] [fold] | Substance
1080 |  | i53 (WT) (designed binder)
338 | 3 | i53 variant T12V.T14H.L67H (designed binder)
